According to patent US20080242590A1, “New Method 706” (ASTRAZENECA AB, priority 2007, published 2008):

Key:
amyloid β 1-40 peptide = experiment: Degradation of amyloid β 1-40 peptide by Fc-Neprilysin and Neprilysin in buffer; type: biochemical; conditions: 2.4 μg/ml, Aβ 1-40 300 nM, 2.5 hours at 37° C., buffer
Description: The assay is measuring the remaining amyloid β 1-40 peptide (Bachem) concentration following its incubation in the presence of Neprilysin (R&D Systems) or Fc-Neprilysin with or without Neprilysin inhibitor. 100 μl of reaction mixture containing amyloid β 1-40 peptide (final concentrations, 300, 30 or 3 nM) and/or Neprilysin (2.4 μg/ml), and/or Fc-Neprilysin construct (2.4 μg/ml), and/or Phosphoramidone (10 μM) was incubated in a round bottom 96-well polypropylene plate at 37° C. for 2.5 hours. Following incubation, 10 μl of reaction mixture was transferred into Thermo-Fast© 96-well PCR plate (Abgene, UK) containing 10 μl of Standard Diluent (Gyros AB). Amyloid β 1-40 concentration was determined using Gyrolab Workstation LIF system. Biotinylated anti-amyloid β antibodies (6E10; final concentration 50 μg/ml; Signet) were used as capturing antibodies and polyclonal anti-human amyloid β antibodies (44-348; Biosource) labeled with Alexa Fluor 647 dye (Molecular probes) were used as detection antibodies. Amyloid β 1-40 peptide concentration measurement performed according to the manufacturers protocol using Gyrolab Bioaffy™ Software Package Version 1.8 (Gyros AB). Amyloid β 1-40 peptide degradation by Neprilysin was calculated as a percentage of Amyloid β 1-40 peptide left after incubation in the presence of Neprilysin compared to the amyloid β 1-40 peptide concentration in the absence of Neprilysin.

[1] = Plasma exposure (Example 23); type: in vivo, APPSWE-transgenic mice; conditions: for Mean plasma exposure: 1.5 hours; for Plasma exposure: 3 hours
Description: The Fc-Nep fusion protein was developed to improve the pharmacokinetic entities of neprilysin with the specific aims to reduce clearance and improve half-life. To test this we have administrated a single i.v. dose of either 1 mg/kg commercial neprilysin or 1 alternatively 5 mg/kg in-house produced Fc-Nep to mice. At set times after dosing blood samples were drawn from the tail vein or by heart puncture at termination. Upon sampling into tubes containing EDTA the aliquots were put on ice. Plasma was prepared by centrifugation within 15 minutes of sampling (typically 1500 g at 4° C. for 10 min) and immediately frozen. Plasma concentrations of Fc-Nep and neprilysin were determined via immunoassays using either anti-Nep for commercial neprilysin or anti-human IgG for Fc-Nep as capture antibodies while both substances were detected via an anti-Nep antibody. Pharmacokinetic parameters are calculated using a software package (WinNonlin, Pharsight Corporation, USA) and in this example experiment the calculated half-life had increased from about 5 minutes for Nep to about 20 hours for Fc-Nep.
25-31 weeks old female APPSWE-transgenic mice (10 mice/group) received vehicle or the Fc-Nep at 1 or 5 mg/kg as a single intravenous injections. As a reference compound, 300 μmol/kg of the γ-secretase inhibitor M-550426 was used and these animals was treated in 3 hours (4 mice). […] Blood was sampled from vehicle- and compound-treated animals at 1.5 and 3 hours after dose. Blood was withdrawn from anaesthetized mice by heart puncture into pre-chilled microtainer tubes containing EDTA. Blood samples were immediately put on ice prior to centrifugation. Plasma was prepared by centrifugation for 10 minutes at approximately 3000×g at +4° C. within 20 minutes from sampling. After blood sampling, mice were terminated. Aβ40 and Aβ42 levels in plasma were analyzed by commercial ELISA kit obtained from Biosource and Innogenetics, respectively.
The concentrations of Fc-Nep in plasma and in the formulations were assayed according to the procedures described in Example 20. The exposure in plasma was analysed in samples from non-treated animals (blank) and in samples from animals treated with M550426.

Aβ40 = experiment: Plasma Aβ40 time-response after single i.v. dose (Example 25); type: in vivo, C57BL/6 mice; conditions: 5 mg/kg single i.v., all time points (1.5, 6, 12, 24, 36, 72 and 168 hours)
Description: The objective of this study was to evaluate the time-response relationship of the hFc-Nep in plasma of female C57BL/6 mice after a single dose. The specific purpose is to find how long the reducing effect of hFc-Nep stays in the plasma, and to correlate the effect to the level of exposure of test compound in plasma. The γ-secretase inhibitor M-550426 is included as a positive compound.
20-21 weeks old female C57BL/6 mice (8 mice/group) received vehicle or hFc-Nep at 5 mg/kg as a single intravenous injection and Aβ40 was analysed at different time points after injection (between 1.5-168 hours, i.e., up to 1 week). The γ-secretase inhibitor M-550426 was given per orally and the animals were treated for 3 hours. A blank group was also included in the study. […] Blood collection, plasma processing and measurement of mouse Aβ40 levels in plasma were basically as described in Example 27.

Aβ 1-42 = experiment: Degradation of Aβ 1-42 in APPswe-tg mouse plasma pool (Example 28); type: biochemical; conditions: room temperature, 1 hour
Description: Mouse plasma collected from 9 animals was stored at −70° C. Plasma was thawed and pooled just before the experiment. Aβ 1-40 and 1-42 in plasma pool was degraded by human Fc-Nep or mouse Fc-Nep with corresponding vehicles (50 mM Tris-HCl, 150 mM NaCl pH 7.5). The following final concentrations of the Fc-Nep constructs were used, 100, 32, 10, 3.2, 1, 0.3, 0.1 and […] and the degradation occurred at room temperature for 1 hour while shaking on an orbital shaker. The enzymatic reaction was stopped by adding Phosphoramidone (10 μM final concentration).
After degradation, a final concentration of 4.7 mM EDTA was added to the tg-mouse plasma tubes and the plasma samples were diluted 3 times in sample diluent, before the concentration of Aβ42 was analyzed using ELISA kit Innotest® β-Amyloid1-42 (Innogenetics, lot#177462, ref#80177) according to the manufacturers instructions. The highest concentration (100 μg/ml) of human Fc-Nep and mouse Fc-Nep degraded human plasma amyloid β 1-40 by 71% and 77%, respectively and Aβ 1-42 by 34% and 53%, respectively, as compared to plasma without Fc-Nep treatment.

B1: Fc-Neprilysin: extracellular domain of human Neprilysin fused to the human IgG2 Fc domain (including hinge), Fc at N-terminus; SEQ ID NO 11 (protein)
chain: ERKCCVECPPCPAPPVAGPSVFLFPPKPKDTLMISRTPEVTCVVVDVSHEDPEVQFNWYVDGVEVHNAKTKPREEQFNSTFRVVSVLTVVHQDWLNGKEYKCKVSNKGLPAPIEKTISKTKGQPREPQVYTLPPSREEMTKNQVSLTCLVKGFYPSDIAVEWESNGQPENNYKTTPPMLDSDGSFFLYSKLTVDKSRWQQGNVFSCSVMHEALHNHYTQKSLSLSPGKYDDGICKSSDCIKSAARLIQNMDATTEPCTDFFKYACGGWLKRNVIPETSSRYGNFDILRDELEVVLKDVLQEPKTEDIVAVQKAKALYRSCINESAIDSRGGEPLLKLLPDIYGWPVATENWEQKYGASWTAEKAIAQLNSKYGKKVLINLFVGTDDKNSVNHVIHIDQPRLGLPSRDYYECTGIYKEACTAYVDFMISVARLIRQEERLPIDENQLALEMNKVMELEKEIANATAKPEDRNDPMLLYNKMTLAQIQNNFSLEINGKPFSWLNFTNEIMSTVNISITNEEDVVVYAPEYLTKLKPILTKYSARDLQNLMSWRFIMDLVSSLSRTYKESRNAFRKALYGTTSETATWRRCANYVNGNMENAVGRLYVEAAFAGESKHVVEDLIAQIREVFIQTLDDLTWMDAETKKRAEEKALAIKERIGYPDDIVSNDNKLNNEYLELNYKEDEYFENIIQNLKFSQSKQLKKLREKVDKDEWISGAAVVNAFYSSGRNQIVFPAGILQPPFFSAQQSNSLNYGGIGMVIGHEITHGFDDNGRNFNKDGDLVDWWTQQSASNFKEQSQCMVYQYGNFSWDLAGGQHLNGINTLGENIADNGGLGQAYRAYQNYIKKNGEEKLLPGLDLNHKQLFFLNFAQVWCGTYRPEYAVNSIKTDVHSPGNFRIIGTLQNSAEFSEAFHCRKNSYMNPEKKCRVW
With B1 the “Amyloid β 1-40 peptide degraded” value (amyloid β 1-40 peptide; batch 1) was 50%, the “Amyloid β 1-40 peptide degraded” value (amyloid β 1-40 peptide; batch 2) was 42% and the Mean plasma exposure ([1]; 1 mg/kg i.v.) was 9.8 µg/mL. For the same molecule, the Plasma exposure ([1]; 1 mg/kg i.v.) was 7.6 µg/mL, the Mean plasma exposure ([1]; 5 mg/kg i.v.) was 33.6 µg/mL and the Plasma exposure ([1]; 5 mg/kg i.v.) was 27.3 µg/mL. The “Aβ40 reduction in plasma compared to vehicle” value (Aβ40) was 67-80%, the “Degradation of Aβ 1-42 compared to plasma without treatment” value (Aβ 1-42; highest concentration 100 μg/ml) was 34% and the EC50 (Aβ 1-42) was 1300 nM.
